In PMC6486907:

Experiments:
[1] = target: Sau-TBD (large fragment of Staphylococcus aureus Pol I with the thioredoxin-binding domain of bacteriophage T7 DNA polymerase inserted) (Staphylococcus aureus | bacteriophage T7)
[2] = target: Sau-TBD (large fragment of Staphylococcus aureus Pol I with the thioredoxin-binding domain of bacteriophage T7 DNA polymerase inserted) (Staphylococcus aureus | bacteriophage T7); remark: listed apart in the source

Question: With “thioredoxin from E. coli (TrxA) (from UniProt P0AA25 2-109) (natural protein)” as the substance, how does the DNA polymerase activity of Sau-TBD on primed M13mp18 DNA with 1.5 uM thioredoxin (1316 units/mg protein without thioredoxin) (units/mg protein) [1] read?
Answer: 2860

Question: And the average primer extension length of Sau-TBD with thioredoxin, as told in the text (differs from Table 3) [2]?
Answer: 74.2 nt

Question: What about the microscopic processivity (PI) of Sau-TBD with thioredoxin, as told in the text (differs from Table 3) [2] of the same substance?
Answer: 0.986
